In the test the target is EIIA^Glc (UniProt P69783 2-169). Nature of the test: SPR + ELISA.

Here are results for one molecule from doi:10.1101/2022.06.06.494913 (bioRxiv, 2022).

Usually Kd stands for a measure of binding affinity in units of concentration.

Sequence of EIIA^Glc (P69783 2-169): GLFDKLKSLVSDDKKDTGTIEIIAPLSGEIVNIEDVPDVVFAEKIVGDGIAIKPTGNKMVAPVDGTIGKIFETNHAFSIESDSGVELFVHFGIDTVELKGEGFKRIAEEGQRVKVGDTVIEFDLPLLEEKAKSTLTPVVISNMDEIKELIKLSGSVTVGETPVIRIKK

B1: EIIB^Glc (domain or fragment)
chain: EDATEDAKATGTSEMAPALVAAFGGKENITNLDACITRLRVSVADVSKVDQAGLKKLGAAGVVVAGSGVQAIFGTKSDNLKTEMDEYIRN
For the molecule B1, the equilibrium dissociation constant (Kd) was more than 10 µM.
